Experimental data from patent US20250304709A1 (Eli Lilly, published 2025).

Experiments:
human L1CAM-hIgG1-Fc [1] = target: T1, human L1CAM-hIgG1-Fc (human, UniProt P32004 20-1120, limits assumed); experiment: SPR, Biacore T200, 25 C, MBM captured by human Fab capture kit, target as analyte, 1:1 fit
T1 construct: also called hL1CAM; not shown: human IgG1 Fc
Experimental: (§1) A human Fab capture kit (Cytiva P/N 28958325) is immobilized on a CM5 chip (Cytiva P/N 29104988) using standard NHS-EDC amine coupling on all four flow cells (Fc). Multispecific binding molecules (“MBM1” of Table 2, with or without conjugated siRNA (denoted by *) as described above) are prepared at 10 μg/mL by dilution into running buffer. Target (e.g., mouse TFR-mIgG1-Fc, mouse L1CAM-hIgG1-Fc and human L1CAM-hIgG1-Fc, respectively) are prepared at final concentrations of 100.0, 25.0, 6.25, 1.56, 0.39, 0.097, 0.024 and 0 (blank) nM by dilution into running buffer.
(§2) Each analysis cycle consists of (1) capturing multispecific binding molecule samples on separate flow cells (Fc2, Fc3 and Fc4); (2) injection of the respective concentration for the blood brain barrier target (e.g., TFR) over all Fc at 10 μL/min for 60 seconds followed by return to buffer flow for 1800 seconds to monitor dissociation phase; (3) injection of each human L1CAM concentration over all Fc at 100 μL/min for 120 seconds followed by return to buffer flow for 1200 seconds to monitor dissociation phase; (4) regeneration of chip surfaces with injection of 10 mM glycine, pH 1.5, for 30 seconds at 10 μL/min over all cells; and (5) equilibration of chip surfaces with a 10 μL (60-sec) injection of HBS-EP+. Data are processed using standard double-referencing and fit to a 1:1 binding model using Biacore T200 Evaluation software, version 2.0.3, to determine the association rate (kₒₙ, M⁻¹s⁻¹ units), dissociation rate (koff, s⁻¹ units), and Rₘₐₓ (RU units). The equilibrium dissociation constant (KD) is calculated from the relationship KD=koff/kₒₙ, and presented in molar units.

mouse L1CAM-hIgG1-Fc [2] = target: T2, mouse L1CAM-hIgG1-Fc (mouse; human, UniProt P11627 20-1123, limits assumed); experiment: as above
T2 construct: also called mL1CAM; not shown: human IgG1 Fc
Experimental: as §1, §2

human L1CAM-hIgG1-Fc [3] = target: T1, human L1CAM-hIgG1-Fc; experiment: SPR, Biacore T200, 25 C, MBM captured by human Fab capture kit, target as analyte, 1:1 fit (column head also prints '(10^-4)', not applied a second time)
Experimental: as §1, §2

mouse L1CAM-hIgG1-Fc [4] = target: T2, mouse L1CAM-hIgG1-Fc; experiment: as above
Experimental: as §1, §2

human L1CAM-hIgG1-Fc [5] = target: T1, human L1CAM-hIgG1-Fc; experiment: SPR, Biacore T200, 25 C, MBM captured by human Fab capture kit, KD=koff/kon (column head prints pM; text says molar units)
Experimental: as §1, §2

mouse L1CAM-hIgG1-Fc [6] = target: T2, mouse L1CAM-hIgG1-Fc; experiment: as above
Experimental: as §1, §2

T1 sequence (P32004 20-1120 limits assumed): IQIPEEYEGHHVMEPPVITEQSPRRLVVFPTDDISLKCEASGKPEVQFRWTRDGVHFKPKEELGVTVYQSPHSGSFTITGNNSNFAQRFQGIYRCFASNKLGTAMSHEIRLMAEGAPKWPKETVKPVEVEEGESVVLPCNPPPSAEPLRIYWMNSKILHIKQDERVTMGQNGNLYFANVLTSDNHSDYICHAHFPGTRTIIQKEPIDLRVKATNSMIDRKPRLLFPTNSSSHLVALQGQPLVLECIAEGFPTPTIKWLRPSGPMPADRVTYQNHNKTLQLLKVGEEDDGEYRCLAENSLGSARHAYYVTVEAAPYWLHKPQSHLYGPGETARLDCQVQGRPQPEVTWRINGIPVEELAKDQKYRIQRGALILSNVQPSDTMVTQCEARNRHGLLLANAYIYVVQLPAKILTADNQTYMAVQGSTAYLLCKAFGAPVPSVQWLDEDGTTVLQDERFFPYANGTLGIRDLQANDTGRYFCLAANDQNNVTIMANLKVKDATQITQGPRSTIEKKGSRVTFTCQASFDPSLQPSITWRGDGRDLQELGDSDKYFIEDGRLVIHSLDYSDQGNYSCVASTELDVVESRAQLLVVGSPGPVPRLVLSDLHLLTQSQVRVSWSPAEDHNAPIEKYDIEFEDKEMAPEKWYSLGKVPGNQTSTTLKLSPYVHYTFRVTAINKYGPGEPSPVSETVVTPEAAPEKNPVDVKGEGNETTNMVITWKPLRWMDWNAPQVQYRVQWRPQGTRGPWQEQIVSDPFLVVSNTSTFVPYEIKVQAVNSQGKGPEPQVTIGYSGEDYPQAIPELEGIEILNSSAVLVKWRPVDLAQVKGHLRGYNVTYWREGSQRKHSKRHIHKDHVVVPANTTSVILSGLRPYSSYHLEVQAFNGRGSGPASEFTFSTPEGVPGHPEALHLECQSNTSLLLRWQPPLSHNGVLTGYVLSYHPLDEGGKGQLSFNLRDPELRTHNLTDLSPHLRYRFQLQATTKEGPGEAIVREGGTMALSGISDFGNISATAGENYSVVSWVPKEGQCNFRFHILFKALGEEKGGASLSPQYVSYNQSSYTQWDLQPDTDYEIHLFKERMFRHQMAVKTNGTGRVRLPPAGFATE
T2 sequence (P11627 20-1123 limits assumed): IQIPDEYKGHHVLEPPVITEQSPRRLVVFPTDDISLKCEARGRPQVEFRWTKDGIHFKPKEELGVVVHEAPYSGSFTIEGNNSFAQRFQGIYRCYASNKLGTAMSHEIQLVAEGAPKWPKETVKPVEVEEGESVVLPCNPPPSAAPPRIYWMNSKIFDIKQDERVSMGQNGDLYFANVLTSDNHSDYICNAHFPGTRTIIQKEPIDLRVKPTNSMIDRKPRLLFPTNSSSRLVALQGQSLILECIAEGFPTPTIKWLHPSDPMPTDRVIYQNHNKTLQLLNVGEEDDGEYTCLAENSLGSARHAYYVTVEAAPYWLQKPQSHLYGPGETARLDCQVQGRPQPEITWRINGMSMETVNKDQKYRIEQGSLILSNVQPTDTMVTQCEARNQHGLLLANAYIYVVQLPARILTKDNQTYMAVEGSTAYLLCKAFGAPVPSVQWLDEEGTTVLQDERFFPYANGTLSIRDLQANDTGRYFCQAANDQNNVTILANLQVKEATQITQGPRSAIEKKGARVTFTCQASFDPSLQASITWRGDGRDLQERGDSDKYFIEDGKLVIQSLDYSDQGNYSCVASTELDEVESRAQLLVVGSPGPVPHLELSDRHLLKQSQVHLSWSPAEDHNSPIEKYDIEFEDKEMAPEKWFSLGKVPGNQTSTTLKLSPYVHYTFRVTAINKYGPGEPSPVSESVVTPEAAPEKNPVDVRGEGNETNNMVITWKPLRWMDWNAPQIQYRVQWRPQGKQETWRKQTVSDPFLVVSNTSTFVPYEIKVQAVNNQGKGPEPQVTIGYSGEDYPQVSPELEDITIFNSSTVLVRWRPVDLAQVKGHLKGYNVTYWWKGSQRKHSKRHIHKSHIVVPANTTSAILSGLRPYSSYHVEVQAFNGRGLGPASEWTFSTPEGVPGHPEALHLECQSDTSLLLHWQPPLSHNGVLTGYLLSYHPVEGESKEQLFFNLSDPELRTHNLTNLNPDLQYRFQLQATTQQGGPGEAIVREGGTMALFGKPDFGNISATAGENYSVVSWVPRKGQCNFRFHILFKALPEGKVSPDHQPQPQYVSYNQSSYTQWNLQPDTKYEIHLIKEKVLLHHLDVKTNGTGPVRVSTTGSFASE

kon (human L1CAM-hIgG1-Fc [1])	kon (mouse L1CAM-hIgG1-Fc [2])	koff (human L1CAM-hIgG1-Fc [3])	koff (mouse L1CAM-hIgG1-Fc [4])	Kd (human L1CAM-hIgG1-Fc [5])	Kd (mouse L1CAM-hIgG1-Fc [6])	Binder
260000 M⁻¹ s⁻¹	220000 M⁻¹ s⁻¹	0.00023 s⁻¹	0.00027 s⁻¹	0.89 nM	1.2 nM	Exemplified multispecific binding molecule MBM1 with conjugated siRNA (MBM1*) (bispecific antibody, human IgG4 S228P, kappa, F234A L235A, conjugated siRNA (denoted by *); site not stated for the SPR sample; elsewhere 'siRNA linked at HC Constant region 1', Same four chains as MBM1, with siRNA conjugated) heavy 1: not shown light 1: ALDMTQTASPVSAAVGGTVTINCQSSQSVYNNNRLAWYQQKPGQPPKLLIYDASTLASGVPSRFKGSGSGTQFTLTISGVQSDDSATYYCQGTYFSSGWSWAFGGGTEVVVKRTVAAPSVFIFPPSDEQLKSGTASVVCLLNNFYPREAKVQWKVDNALQSGNSQESVTEQDSKDSTYSLSSTLTLSKADYEKHKVYACEVTHQGLSSPVTKSFNRGEC heavy 2: EVQLVESGGGVVQPGRSLRLSCAASGFTFSRFGMHWVRQAPGKGLEWVAFISNDGSNKYYADSVKGRFTISRDNSKNTLYLQMNSLRPEDTAVYYCARGRAYGSGSLFDPWGQGTLVTVSSASTKGPCVFPLAPCSRSTSESTAALGCLVKDYFPEPVTVSWNSGALTSGVHTFPAVLQSSGLYSLSSVVTVPSSSLGTKTYTCNVDHKPSNTKVDKRVESKYGPPCPPCPAPEAAGGPSVFLFPPKPKDTLMISRTPEVTCVVVDVSQEDPEVQFNWYVDGVEVHNAKTKPREEQFNSTYRVVSVLTVLHQDWLNGKEYKCKVSNKGLPSSIEKTISKAKGQPREPQVYTLPPSQEEMTKNQVSLTCLVKGFYPSDIAVEWESNGQPENNYKTTPPVLDSDGSFLLYSKLTVDKSRWQEGNVFSCSVMHEALHNHYTQKSLSLSLG light 2: DIQMTQSPSSLSASVGDRVTITCKASQGISRFLSWFQQKPGKAPKSLIYAVSSLVDGVPSRFSGSGSGTDFTLTISSLQPEDFATYYCVQYNSYPYGFGGGTKVEIKRTVAAPSVFIFPPSDEQLKSGTASVVCLLNNFYPREAKVQWKVDNALQSGNSQESVTEQDSKDSTYSLSSTLTLSKADYEKHKVYACEVTHQGLSSPVTKSFNRGEC
430000 M⁻¹ s⁻¹	400000 M⁻¹ s⁻¹	0.00011 s⁻¹	0.0002 s⁻¹	0.27 nM	0.51 nM	Exemplified multispecific binding molecule MBM1 (heterodimeric IgG antibody, TFR arm and L1CAM arm) (bispecific antibody, without siRNA; also called BD1 + BD9) heavy 1: not shown light 1: ALDMTQTASPVSAAVGGTVTINCQSSQSVYNNNRLAWYQQKPGQPPKLLIYDASTLASGVPSRFKGSGSGTQFTLTISGVQSDDSATYYCQGTYFSSGWSWAFGGGTEVVVKRTVAAPSVFIFPPSDEQLKSGTASVVCLLNNFYPREAKVQWKVDNALQSGNSQESVTEQDSKDSTYSLSSTLTLSKADYEKHKVYACEVTHQGLSSPVTKSFNRGEC heavy 2: EVQLVESGGGVVQPGRSLRLSCAASGFTFSRFGMHWVRQAPGKGLEWVAFISNDGSNKYYADSVKGRFTISRDNSKNTLYLQMNSLRPEDTAVYYCARGRAYGSGSLFDPWGQGTLVTVSSASTKGPCVFPLAPCSRSTSESTAALGCLVKDYFPEPVTVSWNSGALTSGVHTFPAVLQSSGLYSLSSVVTVPSSSLGTKTYTCNVDHKPSNTKVDKRVESKYGPPCPPCPAPEAAGGPSVFLFPPKPKDTLMISRTPEVTCVVVDVSQEDPEVQFNWYVDGVEVHNAKTKPREEQFNSTYRVVSVLTVLHQDWLNGKEYKCKVSNKGLPSSIEKTISKAKGQPREPQVYTLPPSQEEMTKNQVSLTCLVKGFYPSDIAVEWESNGQPENNYKTTPPVLDSDGSFLLYSKLTVDKSRWQEGNVFSCSVMHEALHNHYTQKSLSLSLG light 2: DIQMTQSPSSLSASVGDRVTITCKASQGISRFLSWFQQKPGKAPKSLIYAVSSLVDGVPSRFSGSGSGTDFTLTISSLQPEDFATYYCVQYNSYPYGFGGGTKVEIKRTVAAPSVFIFPPSDEQLKSGTASVVCLLNNFYPREAKVQWKVDNALQSGNSQESVTEQDSKDSTYSLSSTLTLSKADYEKHKVYACEVTHQGLSSPVTKSFNRGEC
